Data on one substance can be found in article PMC6624373.

Usually stoichiometry N stands for a count of units in the complex or per binding partner.

The target of the experiment is lamin A R7/8E double mutant (human) (UniProt P02545). The experiment in a line: rotary metal shadowing EM; in vitro assembly assay: after dialysis into 25 mM MES, 150 mM NaCl, 1 mM DTT, 1 mM EGTA pH 6.5, 30% glycerol; dimers scored as singular or incorporated into head-to-tail oligomers.

In turn, “lamin A R7/8E double mutant (from UniProt P02545 1-646) (natural protein)” came in with a stoichiometry N of 2.
